Entries after “also recorded” stand apart in the source; their conditions may differ. Bounds are passed on as bounds.

The nature of data set [1]: Thermal stability by nanoDSF. It is filed as physicochemical. The note with it: His-tagged variants and commercial WT; 20 to 95° C. at 1° C./min. As for the experimental part:
(§1) Thermal stability measurements. Thermal stability of BSA and HSA variants (His-tagged form) and of commercial WT HSA and BSA (Sigma-Aldrich A1653 and A7638, respectively) was measured by nanoscale differential scanning fluorimetry (nanoDSF), in Prometheus NT.48 instrument (NanoTemper). The temperature was increased from 20° C. to 95° C. at 1° C./min ramp. Thermal stability of HSA variants was also measured by differential scanning calorimetry (DCS) in VP-DSC instrument (Malvern), with heating from 20° C. to 95° C. at 1° C./min and cooling at the same rate.
For orientation: In DSF a fluorescence change marks the thermal transition of the protein.

Data set [2] is described as follows: Thermal stability by differential scanning calorimetry (DSC). The class given is physicochemical. As for the experimental part:
as §1
Background: In DSC, transitions show as peaks or steps in heat flow.

The subject of a further data set is HEK293T cells. As to the kind of experiment: HEK293T cell culture with albumin variants. The note with it: 1 mg/ml albumin, medium with 5% FBS, 5 days. The class given is cell-based, human. The protocol:
HEK293T adherent cells were grown in DMEM supplemented with GlutaMAX, NEAA and 5% FBS (all from Gibco) at 37° C., 5% CO2. To test the viability of the cultured cells in the presence of PROSS BSA2, HSA1 and HSA3 in comparison to the commercial BSA or HSA, respectively, cells (˜3×10^3) were seeded in 24-well plate and followed each day for 5 days. All the albumin variants were added to the cells at 1 mg/ml in duplicates, and their effect was analyzed. As a control, no protein was added to the growth medium. In each time point, cells were collected and the number of total cells, live cells and % of viable cells were determined automatically using Brightfield Cell Counter DeNovix.

The subject of the next data set is BsiEI. Kind of data set: DNA restriction of pET28b(+) with BsiEI in albumin-containing buffer. It is filed as biochemical. The note with it: 0.1 mg/ml albumin, 60-80° C., 15 min. The protocol: Samples of pET28b(+) vector (1.5 μg) were restricted by BsiEI (10U, NEB) in 15 μl reaction volumes containing the Cutsmart buffer (NEB) or a reconstituted equivalent (50 mM Potassium acetate, 20 mM Tris-acetate, Mg-acetate, pH 7.9) supplemented with 0.lmg/ml of either commercial BSA (Sigma), HSA1, BSA2, or HSA3 variants (tagless, after gel filtration and ion exchange purification) at temperatures of 60-80° C. for 15 min using a gradient PCR (SensoQuest). Samples were then supplemented with 5 μl DNA sample buffer (150 mM TrisHCl pH 7.4, 5% SDS, 50% Glycerol, 0.05% Bromophenol Blue), heated (60° C., 10 min), and resolved on a 2% agarose-TAE gel containing 0.5 μg/mL Ethidium Bromide for 1.5h at 120V.

In a further data set the test system is NcoI and XhoI enzymes. Kind of data set: DNA restriction of pET29b with NcoI and XhoI in albumin-containing buffer. It is filed as biochemical. The note with it: 0.1 mg/ml albumin, overnight at 37° C. The protocol:
DNA Restriction. pET29b vector with 900 bp insert was restricted with NcoI and XhoI enzymes (NEB) overnight at 37° C., using the following buffers: rCutsmart buffer (NEB, contains 0.1 mg/ml rBSA), buffer 4 (NEB, identical composition to rCutsmart buffer, but no BSA), and buffer 4 supplemented with HSA1, BSA2, and HSA3 variants (tagless, after gel filtration and ion exchange purification) at 0.1 mg/ml.

The nature of data set [3]: Gel filtration (size exclusion) chromatography. The class given is physicochemical. The protocol: At the final stage, all the variants were purified by gel filtration chromatography, using HiLoad Superdex 200 column for preps coming from large scale expression (>500 ml culture) and HiLoad Superdex 75 column for preps coming from medium scale expression (50-500 ml culture).
On the technique in general: SEC sorts molecules by how far they enter the pores of the column.

Data set [4] can be described thus: Crystal structure of HSA1 with warfarin, bound myristate. It is filed as binding. The following applies: no myristate added. As for the experimental part:
Crystallization and structure determination of HSA1 and Warfarin. Tagless HSA1 protein obtained from SUMO-HSA production was concentrated to 100 mg/ml in Tris buffer pH 7.0 and supplemented with 1 mM warfarin from 100 mM stock in DMSO. Crystals of HSA1 and warfarin were obtained using the hanging-drop vapor diffusion method with a Mosquito robot (TTP LabTech). All datasets were collected under cryogenic conditions at the European Synchrotron Radiation Facility (ESRF), Grenoble, France at beamline ID30B. The crystals were grown from 0.05 M NaCl, 10% PEG 4000 and 0.05 Tris pH=8.0. The crystals formed in the space group P1, with two monomers per asymmetric unit and diffracted to 2.0 Å resolution. The integrated reflections were scaled using the AIMLESS program (20) from the CCP4i2 program suite (21). HSA1 structure determined by molecular replacement with PHASER (22) using the structure of human serum albumin in complex with aristolochic acid (PDB code 6HSC). All steps of atomic refinement were carried out with the CCP4i2/REFMAC5 program (23) and by PHENIX.refine (24). The models were built into 2 mFobs-DFcalc, and mFobs-DFcalc maps by using the COOT program (25). The model was optimized using PDB_REDO (25, 26) and was evaluated with MOLPROBITY (27). […] Details of the refinement statistics of HSA1 and Warfarin structure are described in Table 1.

B1: HSA3: most highly mutated human albumin variant, 73 mutations all over the protein (Table 2) (protein)
chain: MDAHKSEVAHRFKDLGEENFKALVLIAFAQYLQKCPFEELVKMVKEVTEFAKKCVADETAENCDKSLHTLFGDKLCQVATLRETYGEMADCCAKQDPERHECFLQHKDDNPNLPRLERPEVDVMCKAFHDNEETFLNKYLYEIARRHPYFYAPELLYFAKRYKKAFTECCQAEDKAACLLPKLDALREEGKESSAKQRYKCAILQKFGERVFKAWAIARLSQRFPKAPFEEISKLVTDLTKVHKACCHGDMLECMDDRAKLAKYICENQDSISSKLKECCEKPLLERSHCIAEVENDDKPEDLPPLAADFVESKDVCKNYAEAKDVFLARFLYEYARRHPDYSVTLLLRIAKTYEDTLEKCCKAEDPHECYAKVEEEFKKLVEETQNLIKQNCELFEKLGEYYFQNALLIRYTKKMPQVPTDTLVELTRNLGKVGSKCCKLPEEKRLPCIEDYLSIVLNQLCVLHEKTPVNDRVTKCCTESLVNRRHCFSALEVDETYVPKEFNAETFTFHADLCTLSEEERQIMKQKFLVELVKHKPKATEEQLKAVMDDFTAFVEKCCKAEDPETCFAEEGSKLIAASQAALGL
modifications: Albumin Synthetic variant
In the case of B1, in data set [1], the “Melting temperature nanoDSF” value is above 95 °C. In addition, the “Thermal stability” value in data set [2] was “stable beyond the boiling point”. Further, the “Reversibility of thermal unfolding” value in data set [2] (heating and cooling) was “reversible temperature-dependent folding and unfolding”. Further, the “Melting temperature (DSC)” value in data set [2] (heating at 1° C./min) is 100.5 °C. In the data set on HEK293T cells, the “Effect on number of HEK293T cells” value is recorded as “no adverse effect” and the “Effect on viability of HEK293T cells” value is reported as “no adverse effect”. The “Restriction performance, pET28b(+) digested with BsiEI” value in the data set with BsiEI was “performed equally well”. Moreover, the “Restriction performance, pET29b(+) digested with NcoI and XhoI” value in the data set with NcoI and XhoI enzymes is “performed equally well”.

B2: HSA1: human serum albumin variant with 16 mutations, no surface and no binding site mutations (Table 2) (protein)
chain: MDAHKSEVAHRFKDLGEENFKALVLIAFAQYLQQCPFEDLVKMVNEVTEFAKTCVADESAENCDKSLHTLFGDKLCTVATLRETYGEMADCCAKQEPERNECFLQHKDDNPNLPRLVRPEPDVMCTAFHDNEETFLKKYLYEIARRHPYFYAPELLYFAKRYKAAFTECCQAADKAACLLPKLDELREEGKASSAKQRHKCAILQKFGERAFKAWAVARLSQRFPKAEFAEVSKLVTDLTKVHTECCHGDLLECADDRADLAKYICENQDSISSKLKECCEKPLLEKSHCIAEVENDEMPADLPSLAADFIESKDVCKNYAEAKDVFLGMFLYEYARRHPDYSVVLLLRLAKTYETTLEKCCAAADPHECYSKVFDEFKPLIEEPQNLIKQNCELFEQLGEYKFQNALLIRYTKKVPQVSTPTLVEVARNLGKVGSKCCKHPEAKRMPCAEDYLSIVLNQLCVLHEKTPVSDRVTKCCTESLVNRRPCFSALEVDETYVPKEFNAETFTFHADICTLSEEERQIKKQTALVELVKHKPKATKEQLKAVMDDFSAFVEKCCKADDKETCFAEEGKKLIAASQAALGL
modifications: Albumin Synthetic variant
As for B2, the “Melting temperature nanoDSF” value in data set [1] was determined as 86 °C. Moreover, in data set [3], the “Oligomeric state by gel filtration” value is listed as “completely monomeric”. Moreover, the “Fatty-acid (myristate) binding” value in data set [4] is “indistinguishable from the wild type; also recorded: four molecules of myristate fatty acid are present in the structure”. Besides, in the data set on HEK293T cells, the “Effect on number of HEK293T cells” value is recorded as “no adverse effect” and the “Effect on viability of HEK293T cells” value was “no adverse effect”. The “Restriction performance, pET28b(+) digested with BsiEI” value with BsiEI is listed as “performed equally well”. Also, in the data set with NcoI and XhoI enzymes, the “Restriction performance, pET29b(+) digested with NcoI and XhoI” value was “performed equally well”.

These data come from patent publication US12583908B2, “Albumin protein variants, production thereof and uses of same” (Yeda Research and Development Co. Ltd., priority 2022, dated 2026).
